Patent publication US20250270318A1 (AB THERAPEUTICS, published 2025)

Legend:
[1] = target: T1, TIGIT (on TIGIT-transfected Jurkat cells) (UniProt Q495A1 22-244, limits assumed); test: competition flow cytometry: blocking of biotinylated CD155 binding to Jurkat TIGIT cells
T1 construct: whole, on cells; also called Jurkat TIGIT; cell-associated TIGIT
T1 sequence (looked up): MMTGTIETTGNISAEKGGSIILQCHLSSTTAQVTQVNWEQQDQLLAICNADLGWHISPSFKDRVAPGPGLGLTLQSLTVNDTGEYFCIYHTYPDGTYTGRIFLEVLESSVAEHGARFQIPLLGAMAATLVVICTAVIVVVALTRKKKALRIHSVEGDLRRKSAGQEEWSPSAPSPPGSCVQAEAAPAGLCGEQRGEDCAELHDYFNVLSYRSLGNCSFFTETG
Method: (§1) 10⁵ cells (RKO for PD-1/PD-L1 blocking, Raji for MHC-II/LAG-3 blocking, and Jurkat TIGIT for CD155/TIGIT blocking) were distributed per well in 0.1 ml medium to 96-well V-bottom plate in duplicate. Supernatants were discarded after spinning down cells at 300 g, 5 min at room temperature. […] After incubation, cells were washed by adding 0.15 ml cell staining buffer (PBS containing 1% FBS and 0.1% NaN3) and centrifugation at 300 g, 5 min at room temperature. Supernatants were discarded and cells were washed one more time with 0.15 ml of staining buffer. Cells were subsequently resuspended in […] of 1:500 Streptavidin-PE and incubated at RT for 30 min. Cells were spun down after 0.15 ml cell staining buffer was added, resuspended in 0.12 ml of cell staining buffer, and analyzed by flow cytometry on a NovoCyte flow cytometer (Agilent).

[2] = target: T1, TIGIT (on TIGIT-transfected Jurkat …); test: flow cytometry, antibody binding to Jurkat TIGIT cells (MFI), fluorescent anti-human IgG Fc secondary
Method: (§2) 10⁵ cells (RKO, Jurkat TIGIT, and Jurkat LAG-3 for testing antibody binding to PD-L1, TIGIT, and LAG-3, respectively) per well were distributed in 0.1 ml medium to 96-well V-bottom plates. Supernatants were discarded after spinning down cells at 300 g, 5 min at room temperature. Cells were resuspended in […] of a serial dilution of antibodies and incubated for 1 h at room temperature. After incubation, cells were washed by adding 0.15 ml cell staining buffer (PBS containing 1% FBS and 0.1% NaN3) and centrifugation at 300 g, 5 min at room temperature. Supernatants were discarded and cells were washed one more time with 0.15 ml of staining buffer. Cells were subsequently resuspended in […] of secondary antibody (Alexa Fluor 647-conjugated AffiniPure Goat Anti-Human IgG, Fcγ Fragment Specific. Used at 1:500) and incubated at RT for 30 min. Cells were spun down after 0.15 ml cell staining buffer was added, resuspended in 0.12 ml of cell staining buffer, and analyzed by flow cytometry on a NovoCyte flow cytometer (Agilent).

[3] = target: T2, PD-L1 (endogenous, on RKO colon cancer cells) (human, UniProt Q9NZQ7 19-290); test: flow cytometry, antibody binding to PDL1+ RKO cells (MFI)
T2 construct: whole, on cells; also called cell-associated PD-L1; CD274
T2 sequence (Q9NZQ7 19-290): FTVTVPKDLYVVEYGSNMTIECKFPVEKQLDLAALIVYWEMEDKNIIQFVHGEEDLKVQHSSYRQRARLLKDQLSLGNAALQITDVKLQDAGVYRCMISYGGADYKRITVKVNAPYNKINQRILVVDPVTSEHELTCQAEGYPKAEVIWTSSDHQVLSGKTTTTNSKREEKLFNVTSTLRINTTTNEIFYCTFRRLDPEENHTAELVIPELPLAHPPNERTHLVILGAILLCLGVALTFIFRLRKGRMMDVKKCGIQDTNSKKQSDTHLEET
Method: as §2

[4] = target: T1, TIGIT (on TIGIT-transfected Jurkat …); test: flow cytometry blocking assay: biotinylated CD155 binding to Jurkat TIGIT cells (MFI), streptavidin detection
Method: as §1

[5] = target: T3, LAG-3 (on LAG-3-transfected Jurkat cells) (UniProt P18627 23-525, limits assumed); test: flow cytometry, antibody binding to Jurkat LAG-3 cells (MFI)
T3 construct: whole, on cells; also called Jurkat LAG-3; cell-associated LAG-3
T3 sequence (looked up): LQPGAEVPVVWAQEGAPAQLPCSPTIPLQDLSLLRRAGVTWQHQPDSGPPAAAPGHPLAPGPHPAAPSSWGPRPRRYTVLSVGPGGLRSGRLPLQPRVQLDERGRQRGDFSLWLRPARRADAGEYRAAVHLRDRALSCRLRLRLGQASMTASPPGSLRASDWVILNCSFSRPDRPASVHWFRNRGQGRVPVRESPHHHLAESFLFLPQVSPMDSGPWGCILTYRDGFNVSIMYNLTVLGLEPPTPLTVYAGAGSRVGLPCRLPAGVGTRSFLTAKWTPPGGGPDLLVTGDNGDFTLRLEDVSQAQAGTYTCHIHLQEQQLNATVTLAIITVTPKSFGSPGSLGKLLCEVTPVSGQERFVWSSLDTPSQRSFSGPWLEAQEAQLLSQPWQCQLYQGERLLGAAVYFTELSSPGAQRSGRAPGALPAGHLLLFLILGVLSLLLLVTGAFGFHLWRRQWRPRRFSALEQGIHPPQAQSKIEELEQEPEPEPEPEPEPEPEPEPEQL
Method: as §2

B1: parental anti-TIGIT antibody (antibody, human IgG1, V domains shown)
VH: EVQLVESGGGLVQPGGSLRLSCAASSRTFSRYAMGWFRRAPGKEREFVASISWSGGGLEYAESVKGRFTISRDGSKNTVYLQMNSLAAEDTAVYYCAADPWGSLVNGAVRYEYWGQGTLVTVSS
notes: also called αTIGIT; ABT's parental anti-TIGIT antibody
For B1, the IC50 [1] was ~2.5 nM, the EC50 [2] was 5.64 nM and the binding result [3] was “no binding (tested: 100 nM)”. The IC50 [4] was 2.65 nM.

B2: PD-L1/TIGIT BsAb (bispecific antibody, V domains shown)
V domain 1: EVQLVESGGGLVQPGGSLRLSCAASSRTFSRYAMGWFRRAPGKEREFVASISWSGGGLEYAESVKGRFTISRDGSKNTVYLQMNSLAAEDTAVYYCAADPWGSLVNGAVRYEYWGQGTLVTVSS
V domain 2: not shown
notes: also called PD-L1/TIGIT bispecific antibody; TIGIT/PD-L1 bispecific antibody; not shown: linker peptide
B2 was tested, and the IC50 [1] was ~0.3 nM, the binding result [5] was “no binding (tested: 100 nM)” and the EC50 [2] was 1.59 nM. For the same binder, the IC50 [4] was 0.37 nM.

B3: tiragolumab (antibody, V domains shown)
VH: EVQLQQSGPGLVKPSQTLSLTCAISGDSVSSNSAAWNWIRQSPSRGLEWLGKTYYRFKWYSDYAVSVKGRITINPDTSKNQFSLQLNSVTPEDTAVFYCTRESTTYDLLAGPFDYWGQGTLVTVSS
VL: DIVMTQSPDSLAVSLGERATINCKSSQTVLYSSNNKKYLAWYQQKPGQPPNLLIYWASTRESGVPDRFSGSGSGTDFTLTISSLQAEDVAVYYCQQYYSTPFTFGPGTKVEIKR
Binder B3 has an IC50 [1] of ~0.3 nM, an EC50 [2] of 0.31 nM and an IC50 [4] of 0.29 nM.
